Results reported in the supplement of paper PMC10567573.

B1: C2CD2L (parent)
chain: LTLKVLRSSSCGDTELLGQATLPV
B2: SCNN1D (parent)
chain: IRVMVHGRNHTPFLGHHSFSVRPG
B3: CSNK1G1 (parent)
chain: GSLPWQGLKADTLKERYQKIGDTK

Variants of: B1
Test: protein stability index of a GFP-peptide fusion (GPS, HEK-293T) (PSI 1-6); higher = more stable
Details: c terminus: a fixed tail appended
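Note: lentivirally expressed fusions sorted by FACS into six bins by GFP to DsRed ratio, PSI derived from sequencing read proportions per bin multiplied by bin number.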

Protein stability index, by site and new letter:
D13: N 2.85, R 1.47, G 4.31, F 3.62
A20: G 1.03, D 1.45, W 3.17
L17: V 2.44
T14: H 2.47, Q 1.95, Y 3.11
P23: F 1.57, G 4.54
S8: W 4.16
S9: K 1.4, I 2.11, L 1.16, Q 1.43
C11: L 2.78, S 3.41, K 2.11
T2: H 1.3
L1: G 2.56, W 2.67, M 2.63, R 2.29, Y 1.77
Q19: G 1.91, I 4.42
V5: Q 2.3, F 1.86, T 1.83, G 2.52
S10: D 2, W 4.07
R7: L 3.52, H 2.61
T21: M 2.27, Y 3.37, N 2.36, L 2.39
G18: L 3.01, Q 1.78, V 2.88, T 1.18, K 1.71, S 1.97, E 2.26
L22: P 1.87, D 2.67, H 1.54, I 2.36
L6: P 2.24, Q 2.59, G 1.96
V24: K 1.85, Q 1.82
L16: R 1.8, D 2.69, M 1.86, Y 1.37, P 1.97
K4: F 2.97, V 2.8, S 1.18, W 2.53
L3: N 3.56, K 3.07, A 2.59
G12: D 2.05, S 1.92, F 3.92, A 1.66, K 2.95
E15: L 3.22

Variants of: B2
Test: as above
Details: c terminus: a fixed tail appended

Protein stability index of substitutions, site by site:
L14: H 2.23, E 1.8, N 2.43, I 2.76, Q 2.67, W 2.98, Y 2.42
R22: F 2.77, G 1.39, S 2.31, W 3.39, P 1.68, M 3.3, D 2.85
F13: G 1.96, N 1.77, Y 2.77, L 1.19, A 4.08, H 1.36, R 1
V5: N 1.66, Q 1.87, G 2.89, E 2.64, H 2.32, T 1.89, D 1.1, P 2.12, S 1.21, A 2.48, M 3.81
V3: H 2.07, R 2.13, T 2.2, A 2.42, S 2.13, K 3.58, L 2.11, F 1.93, Y 2.43, G 2.33, P 2.75, N 1.85, W 1.6, D 2.17, Q 1.91
S18: P 2.79, I 5.22, R 4.09, D 2.01, W 4.89
I1: Q 3, H 2.74, L 1.31, T 2.62, E 2.04, R 3.65, W 2.71, S 3.19, K 2.21, F 1.82, A 2.28, D 2.63, M 1.89, P 2.61, N 2.85
H16: L 3.83, Q 3.16, S 2.26
N9: G 2.67, C 1.89, E 3.01, V 3.7, Y 4.19, M 5.71
P12: I 3.72, R 3.86, H 1.48, Y 1.97, G 4.32
H17: Y 4.62, G 3.13, K 2.99, P 2.38, L 3.67, V 2.27, R 2.73, E 1.51, T 1.89
G24: N 1.56, K 1.16, I 2.44, R 1.19, H 1.84, D 2.04
G7: C 1.7, K 2.48, T 1.92, R 2.12, S 1.72, E 2.05, I 2.67, M 2.97
H10: M 2.15, E 1.94, V 3.51, L 3.2, C 2.19
R2: G 2.91, A 2.26, L 2.6, N 2.13, D 2.76, Q 1.58, P 1.76, T 1.51
R8: H 3.06, E 2.47, A 2.25
G15: E 4.06, T 1.88, V 4.3, Q 1.54
P23: A 1.32, W 1.89, N 2.25, K 1.44, T 1.8, S 2.45, Q 1.64
T11: Q 2.44, F 2.59, Y 3.8
V21: H 3.02, S 1.87, N 1.49, F 2.91, D 1.42, A 1.8, R 2.78, L 2.48, E 1.41
F19: H 1.91, G 1.52, P 1.01, M 1.87, D 1.53, R 1.09, K 1.77, T 2.35, I 2.41, Q 1.77, N 1.09
H6: A 2.13, K 3.76, E 2.27, C 2.51, T 2.35, D 2.53, P 2.34, F 1.91, Q 3.67, Y 2.35
M4: A 1.92, P 3.2, D 1.88, W 2.32, N 2.92, K 1.72, G 1.5
S20: K 2.98, I 2.92, N 1.84, T 2.59

Variants of: B3
Test: as above
Details: c terminus: a fixed tail appended

Protein stability index: each site, then its substitutions
S2: E 4.6, A 4.14, W 3.04, T 4.21, K 4.37, P 3.95, D 4.53, V 3.35, G 3.69, F 3.73, Y 4.01, R 3.83, L 4.17, I 3.47, M 4.07, H 3.16, N 4.11, C 3.22, Q 4.57
L3: E 4.18, H 4.58, F 3.71, C 4.31, I 4.55, M 4.54, S 4.2, Q 4.63, Y 4.09, T 4.09, D 4.2, V 4.37, W 3.41, P 3.88, N 4.09, G 4.42, A 4.38, R 3.81, K 4.12
P4: Y 3.73, I 3.67, T 4.08, F 2.84, C 3.42, Q 4.3, M 4.55, N 3.95, L 3.78, W 3.09, H 4.17, S 4.49, R 4.37, D 4.37, G 4.02, K 4.28, A 4.02, V 4.09, E 4.46
G1: K 4.17, S 3.97, M 4.35, E 4.44, H 4, T 4.04, P 4.15, C 3.34, Y 2.08, I 3.52, N 4.13, F 2.73, Q 4.03, W 3.6, L 3.89, V 3.79, R 4.16, D 4.35, A 4.05
W5: C 4.7, I 3.99, E 5.42, H 4.53, A 4.98, G 4.53, D 5.18, F 4.75
